# According to PMC4842197, “Preclinical in vivo application of ^152Tb-DOTANOC: a radiolanthanide for PET imaging” (EJNMMI Research, 2016):
# Bridge positions count the residues as written; N and C are the ends. Square brackets hold non-standard residues; d marks the D form. Peptide text beside a SMILES is read from it. * marks the point of attachment. DOTA = O=C(O)CN1CCN(CC(=O)O)CCN(CC(=O)*)CCN(CC(=O)O)CC1; 1Nal = N[C@@H](Cc1cccc2ccccc12)C(=O)O; Thr(ol) = C[C@@H](O)[C@H](N)CO
# What was measured:
# in vivo = settings: female, CD-1 Foxn-1/nu nude, mouse, iv, total radioactivity, Biodistribution
# Description: (§1) AR42J tumor cells, a rat exocrine pancreatic tumor cell line which is known to express the somatostatin receptor, were obtained from the European Collection of Cell Cultures (ECACC). The cells were cultured in RPMI 1640 medium, supplemented with 10 % fetal calf serum, L-glutamine, and antibiotics under standard conditions in a humidified atmosphere with 5 % CO2 at 37 °C. Routine culture was performed by trypsinization of the cells twice a week. To inoculate the animals, the cells were detached using trypsin, centrifuged, and resuspended in PBS at a concentration of 5 × 10^6 cells/100 μL.
# (§2) In vivo experiments were approved by the local veterinary department and conducted in accordance with the Swiss law of animal protection. Female nude mice (CD-1 Foxn-1/nu) were purchased from Charles River Laboratories (Sulzfeld, Germany). The animals were fed with a standard rodent chow ad libitum (Kliba Nafag, Kaiseraugst, Switzerland).
# (§3) About 2 weeks prior to biodistribution and imaging studies, the mice were inoculated with AR42J tumor cells by subcutaneous injection of the cell suspension (5 × 10^6 cells/100 μL) on each shoulder.
# (§4) Mice were euthanized at pre-determined time points between 30 min and 22 h after injection of the radioconjugate. […] Selected tissues and organs were collected, weighed, and counted for radioactivity using a γ-counter (Packard Canberra Cobra II, USA). The results were listed as a percentage of the injected activity per gram of tissue mass (% IA/g), using counts of a defined volume of the original injection solution measured at the same time.
# AR42J tumor-bearing mice = experiment: in vivo; settings: female, CD-1 Foxn-1/nu nude, mouse, iv, 5 nmol per mouse, 5 h
# Description: as §1, §2, §3, §4
# [1] = 2.5 nmol per mouse (5 MBq), AR42J tumor
# [2] = 2.5 nmol per mouse (5 MBq), Blood
# [3] = 2.5 nmol per mouse (5 MBq), Bone
# [4] = 2.5 nmol per mouse (5 MBq), Brain
# [5] = 2.5 nmol per mouse (5 MBq), Heart
# [6] = 2.5 nmol per mouse (5 MBq), Lung
smiles,measurement,setting,value
"C[C@@H](O)[C@@H]1NC(=O)[C@H](CCCCN)NC(=O)[C@@H](Cc2c[nH]c3ccccc23)NC(=O)[C@H](Cc2cccc3ccccc23)NC(=O)[C@@H](NC(=O)[C@@H](Cc2ccccc2)NC(=O)CN2CCN(CC(=O)O)CCN(CC(=O)O)CCN(CC(=O)O)CC2)CSSC[C@@H](C(=O)N[C@H](CO)[C@@H](C)O)NC1=O [^177Lu-DOTANOC, metal not drawn] ({DOTA}-[dF]C[1Nal][dW]KTC[Thr(ol)]; disulfide 2-7)",tissue uptake at 5 h,"in vivo; 0.5 nmol peptide, Adrenals",0.7 ± 0.13 %ID/g
same,tissue uptake at 5 h,"in vivo; 0.5 nmol peptide, Kidneys",6.63 ± 0.1 %ID/g
same,tissue uptake at 5 h,"in vivo; 0.5 nmol peptide, Lung",1.18 ± 0.36 %ID/g
same,tissue uptake at 5 h,"in vivo; 0.5 nmol peptide, Spleen",0.24 ± 0.03 %ID/g
same,tissue uptake at 5 h,"in vivo; 0.5 nmol per mouse, AR42J Tumor",25.3 ± 4.14 %ID/g
same,tissue uptake at 5 h,"in vivo; 0.5 nmol, Blood",0.09 ± 0.01 %ID/g
same,tissue uptake at 5 h,"in vivo; 0.5 nmol, Bone",0.33 ± 0.08 %ID/g
same,tissue uptake at 5 h,"in vivo; 0.5 nmol, Brain",0.01 %ID/g
same,tissue uptake at 5 h,"in vivo; 0.5 nmol, Heart",0.08 ± 0.01 %ID/g
same,tissue uptake at 5 h,"in vivo; 0.5 nmol, Liver",0.34 ± 0.01 %ID/g
same,tissue uptake at 5 h,"in vivo; 0.5 nmol, Muscle",0.02 ± 0.01 %ID/g
same,tissue uptake at 5 h,"in vivo; 0.5 nmol, Stomach",3.78 ± 0.28 %ID/g
same,tissue uptake at 0.5 h,in vivo; [1],9.02 ± 0.33 %ID/g
same,tissue uptake at 2 h,in vivo; [1],8.32 ± 0.47 %ID/g
same,tissue uptake at 5 h,in vivo; [1],8.45 ± 1.04 %ID/g
same,tissue uptake at 16 h,in vivo; [1],5.48 ± 0.98 %ID/g
same,tissue uptake at 22 h,in vivo; [1],4.51 ± 0.37 %ID/g
same,tissue uptake at 0.5 h,in vivo; [2],2.52 ± 0.65 %ID/g
same,tissue uptake at 2 h,in vivo; [2],0.09 ± 0.01 %ID/g
same,tissue uptake at 5 h,in vivo; [2],0.06 ± 0.01 %ID/g
same,tissue uptake at 16 h,in vivo; [2],0.07 ± 0.01 %ID/g
same,tissue uptake at 22 h,in vivo; [2],0.03 %ID/g
same,tissue uptake at 16 h,in vivo; [3],0.12 ± 0.05 %ID/g
same,tissue uptake at 22 h,in vivo; [3],0.08 ± 0.01 %ID/g
same,tissue uptake at 0.5 h,in vivo; [4],0.06 ± 0.01 %ID/g
same,tissue uptake at 2 h,in vivo; [4],0.01 %ID/g
same,tissue uptake at 5 h,in vivo; [4],0.02 %ID/g
same,tissue uptake at 16 h,in vivo; [4],0.02 ± 0.01 %ID/g
same,tissue uptake at 22 h,in vivo; [4],0.01 %ID/g
same,tissue uptake at 0.5 h,in vivo; [5],1.34 ± 0.35 %ID/g
same,tissue uptake at 2 h,in vivo; [5],0.08 ± 0.01 %ID/g
same,tissue uptake at 5 h,in vivo; [5],0.07 ± 0.01 %ID/g
same,tissue uptake at 16 h,in vivo; [5],0.07 ± 0.01 %ID/g
same,tissue uptake at 22 h,in vivo; [5],0.03 %ID/g
same,tissue uptake at 0.5 h,in vivo; [6],3.04 ± 0.47 %ID/g
same,tissue uptake at 2 h,in vivo; [6],0.45 ± 0.03 %ID/g
same,tissue uptake at 5 h,in vivo; [6],0.41 ± 0.04 %ID/g
same,tissue uptake at 0.5 h,"in vivo; 2.5 nmol per mouse, Adrenals",1.38 ± 0.32 %ID/g
same,tissue uptake at 2 h,"in vivo; 2.5 nmol per mouse, Adrenals",0.28 ± 0.14 %ID/g
same,tissue uptake at 16 h,"in vivo; 2.5 nmol per mouse, Adrenals",0.51 ± 0.4 %ID/g
same,tissue uptake at 22 h,"in vivo; 2.5 nmol per mouse, Adrenals",0.42 ± 0.18 %ID/g
same,tissue uptake at 0.5 h,"in vivo; 2.5 nmol per mouse, Bone",1.13 ± 0.26 %ID/g
same,tissue uptake at 2 h,"in vivo; 2.5 nmol per mouse, Bone",0.17 ± 0.01 %ID/g
same,tissue uptake at 5 h,"in vivo; 2.5 nmol per mouse, Bone",0.12 ± 0.02 %ID/g
same,tissue uptake at 0.5 h,"in vivo; 2.5 nmol per mouse, Intestines",0.94 ± 0.12 %ID/g
same,tissue uptake at 2 h,"in vivo; 2.5 nmol per mouse, Intestines",0.25 ± 0.04 %ID/g
same,tissue uptake at 5 h,"in vivo; 2.5 nmol per mouse, Intestines",0.25 ± 0.03 %ID/g
same,tissue uptake at 16 h,"in vivo; 2.5 nmol per mouse, Intestines",0.16 ± 0.01 %ID/g
same,tissue uptake at 0.5 h,"in vivo; 2.5 nmol per mouse, Kidneys",13 ± 1.85 %ID/g
same,tissue uptake at 2 h,"in vivo; 2.5 nmol per mouse, Kidneys",7.67 ± 0.51 %ID/g
same,tissue uptake at 5 h,"in vivo; 2.5 nmol per mouse, Kidneys",9.1 ± 1.66 %ID/g
same,tissue uptake at 16 h,"in vivo; 2.5 nmol per mouse, Kidneys",6.13 ± 1.63 %ID/g
same,tissue uptake at 22 h,"in vivo; 2.5 nmol per mouse, Kidneys",4.8 ± 0.19 %ID/g
same,tissue uptake at 0.5 h,"in vivo; 2.5 nmol per mouse, Liver",1.43 ± 0.17 %ID/g
same,tissue uptake at 2 h,"in vivo; 2.5 nmol per mouse, Liver",0.52 ± 0.04 %ID/g
same,tissue uptake at 5 h,"in vivo; 2.5 nmol per mouse, Liver",0.53 ± 0.1 %ID/g
same,tissue uptake at 16 h,"in vivo; 2.5 nmol per mouse, Liver",0.27 ± 0.05 %ID/g
same,tissue uptake at 22 h,"in vivo; 2.5 nmol per mouse, Liver",0.2 ± 0.02 %ID/g
same,tissue uptake at 16 h,"in vivo; 2.5 nmol per mouse, Lung",0.27 ± 0.05 %ID/g
same,tissue uptake at 0.5 h,"in vivo; 2.5 nmol per mouse, Muscle",0.48 ± 0.16 %ID/g
same,tissue uptake at 2 h,"in vivo; 2.5 nmol per mouse, Muscle",0.02 %ID/g
same,tissue uptake at 5 h,"in vivo; 2.5 nmol per mouse, Muscle",0.02 ± 0.01 %ID/g
same,tissue uptake at 16 h,"in vivo; 2.5 nmol per mouse, Muscle",0.03 %ID/g
same,tissue uptake at 22 h,"in vivo; 2.5 nmol per mouse, Muscle",0.01 %ID/g
same,tissue uptake at 0.5 h,"in vivo; 2.5 nmol per mouse, Pancreas",1.99 ± 0.07 %ID/g
same,tissue uptake at 2 h,"in vivo; 2.5 nmol per mouse, Pancreas",1.09 ± 0.17 %ID/g
same,tissue uptake at 5 h,"in vivo; 2.5 nmol per mouse, Pancreas",0.88 ± 0.11 %ID/g
same,tissue uptake at 16 h,"in vivo; 2.5 nmol per mouse, Pancreas",0.34 ± 0.05 %ID/g
same,tissue uptake at 22 h,"in vivo; 2.5 nmol per mouse, Pancreas",0.25 ± 0.03 %ID/g
same,tissue uptake at 0.5 h,"in vivo; 2.5 nmol per mouse, Spleen",0.77 ± 0.03 %ID/g
same,tissue uptake at 5 h,"in vivo; 2.5 nmol per mouse, Spleen",0.18 ± 0.02 %ID/g
same,tissue uptake at 22 h,"in vivo; 2.5 nmol per mouse, Spleen",0.09 ± 0.01 %ID/g
same,tissue uptake at 0.5 h,"in vivo; 2.5 nmol per mouse, Stomach",1.95 ± 0.23 %ID/g
same,tissue uptake at 2 h,"in vivo; 2.5 nmol per mouse, Stomach",1.14 ± 0.04 %ID/g
same,tissue uptake at 5 h,"in vivo; 2.5 nmol per mouse, Stomach",1.21 ± 0.55 %ID/g
same,tissue uptake at 16 h,"in vivo; 2.5 nmol per mouse, Stomach",0.68 ± 0.09 %ID/g
same,tissue uptake at 22 h,"in vivo; 2.5 nmol per mouse, Stomach",0.6 ± 0.22 %ID/g
same,tissue uptake at 5 h,"in vivo; 5 nmol peptide, Adrenals",0.18 ± 0.05 %ID/g
same,tissue uptake at 5 h,"in vivo; 5 nmol peptide, Kidneys",7 ± 0.69 %ID/g
same,tissue uptake at 5 h,"in vivo; 5 nmol peptide, Lung",0.28 ± 0.01 %ID/g
same,tissue uptake at 5 h,"in vivo; 5 nmol peptide, Spleen",0.11 ± 0.02 %ID/g
same,tissue uptake at 5 h,"in vivo; 5 nmol per mouse, AR42J Tumor",3.82 ± 0.2 %ID/g
same,tissue uptake at 5 h,"in vivo; 5 nmol, Blood",0.06 ± 0.01 %ID/g
same,tissue uptake at 5 h,"in vivo; 5 nmol, Bone",0.09 ± 0.02 %ID/g
same,tissue uptake at 5 h,"in vivo; 5 nmol, Brain",0.01 %ID/g
same,tissue uptake at 5 h,"in vivo; 5 nmol, Heart",0.06 %ID/g
same,tissue uptake at 5 h,"in vivo; 5 nmol, Intestines",0.14 ± 0.01 %ID/g
same,tissue uptake at 5 h,"in vivo; 5 nmol, Liver",0.36 ± 0.04 %ID/g
same,tissue uptake at 5 h,"in vivo; 5 nmol, Muscle",0.02 %ID/g
same,tissue uptake at 5 h,"in vivo; 5 nmol, Pancreas",0.41 ± 0.01 %ID/g
same,tissue uptake at 5 h,"in vivo; 5 nmol, Stomach",0.41 ± 0.05 %ID/g
same,"Biodistribution, AR42J Tumor",AR42J tumor-bearing mice,~ 4 % IA/g
